We go through two molecules from patent US20120220538A1 (UNIVERSITY OF LOUISVILLE RESEARCH FOUNDATION, published 2012).

One test concerns the target human histone 4 (human, UniProt P62805 2-103). Kind of test: in vitro histone binding assay, histone coated on plate, anti-lunasin polyclonal antibody + HRP secondary, A450.
The target in another test is human histone 3.3 (human, UniProt P84243 2-136). The description is as above.

B1: synthetic lunasin (peptide)
peptide: SKWQHQQDSCRKQLQGVNLTPCEKHIMEKIQGRGDDDDDDDDD
notes: Made by peptide synthesis; It is the 43-residue published form of lunasin; also called synthetic lunasin created by peptide synthesis
B1: the binding result with human histone 4 and in the test with human histone 3.3 was “binds” each time.

B2: soybean-derived lunasin (lunasin purified from soybean white flake) (peptide)
peptide: SKWQHQQDSCRKQLQGVNLTPCEKHIMEKIQGRGDDDDDDDDDN
notes: Purified from soybean white flake and released from the lunasin-containing complex with a reducing agent; also called purified lunasin; highly purified soybean-derived lunasin
As for B2, the binding result with human histone 4 and with human histone 3.3 was “binds” throughout.
